Patent US20240392013A1, “IL1RAP ANTIBODIES AND USES THEREOF” (STELEXIS THERAPEUTICS, LLC, priority 2021, published 2024)

Experiments:
[1] = tested on: IL36-induced downstream signaling (phospho-ERK, AKT, p38, NFκB) in HPAC, CAL33, 5637 cells; assay: IL36 signaling in solid tumor cancer cells, Western blot; type: cell-based; details: IL36γ, antibody 20 μg/ml
Experimental: (§1) AML patient samples or cancer cells (AML, chronic myelogenous leukemia (CML), pancreatic, head and neck squamous cell carcinoma (HNSCC), bladder, non-small-cell lung carcinoma (NSCLC), colorectal and triple-negative breast cancer (TNBC)) were seeded in 6-well plates (5×10^5 cells/well) and incubated overnight at 37° C./5% CO2 in humified incubator. In experiments conducted in cancer cell lines, cells were washed 2× with PBS and serum-starved for 3 hours. Following, cells were treated with IL1RAP antibodies at concentration of 20 μg/ml and incubated for 1 h at 37° C./5% CO2 in humidified incubator. After 1 h, cells were treated with IL1β (Invivogen, cat: rcyec-hil1b), IL33 (Adipogen, cat: AG-40B-0160-C010) or IL36 cytokines (R@D, cat: 6836IL) at 100 ng/ml and incubated for 15 more minutes. Cells were harvested on ice after 1× wash with cold PBS and were centrifuged for 5 minutes at 5000 rpm at 4° C. Cells were then lysed with NP-40 buffer for 5 minutes on ice and centrifuged for 15 minutes at 15000 rpm at 4° C. Supernatants were collected and protein concentrations were determined by BCA (Thermofisher, Cat #PI23225). […] After 3× washes, ECL was applied (Thermofisher, Cat #32106) and proteins were detected after exposure to autoradioraphic films (Worldwide medical products, Cat #41101001) and protein intensity was quantitated using ImageJ software.

[2] = tested on: IL33-induced NFκB activity; assay: HEK-BlueIL33 NFκB Reporter Assay; type: cell-based, human; details: nM range, read-out: IC50, inhibition of IL33-induced NFκB activity
Description: HEK-Blue IL33 (Invivogen, Cat #hkb-hil33) cell line was used to monitor NFκB activity upon stimulation with IL33 cytokine. The secreted embryonic alkaline phosphatase reporter gene (SEAP) is inducible expressed under the control of IFN-β minimal promoter fused to NFκB/AP-1. HEK-BlueIL33 cells were also generated upon stable transfection with human IL1RL1 (ST2) gene. Specificity to IL33 cytokine was achieved by blockage of TNF-α and IL1 response. Cells are maintained in the presence of hygromycin (200 μg/ml), zeocin (100 μg/ml) and blasticidin (10 μg/ml).
(§2) For the functional assay, cells were plated at a density of 5×10^4 cells/well in 96-well plates. Cells were treated with each antibody at the highest concentration of 200 μg/ml followed by seven serial 1:3 dilutions and incubated for 45 minutes at 37° C./5% CO^2 in humified incubator. Cells were then stimulated with IL33 (12 μM) and incubated overnight at 37° C./5% CO2 in humified incubator. Every treatment was conducted in triplicates. Following, supernatants from each well were mixed with Quanti-Blue substrate (Invivogen, Cat #rep-qb1) according to manufacturer's recommendations and secreted SEAP was measured using spectrophotometer at 650 nm.

[3] = target: T1, hIL1RAP (Homo sapiens, UniProt Q9NPH3); assay: Kinetics of IL1RAP mAbs by Octet, human IL1RAP; type: binding; design: extracellular domain His-tagged, Cat #10121-H08H; His; purchased Sino Biological lot MB08MA1301 (catalogue number not given)
T1 sequence (Q9NPH3 21-367 limits assumed): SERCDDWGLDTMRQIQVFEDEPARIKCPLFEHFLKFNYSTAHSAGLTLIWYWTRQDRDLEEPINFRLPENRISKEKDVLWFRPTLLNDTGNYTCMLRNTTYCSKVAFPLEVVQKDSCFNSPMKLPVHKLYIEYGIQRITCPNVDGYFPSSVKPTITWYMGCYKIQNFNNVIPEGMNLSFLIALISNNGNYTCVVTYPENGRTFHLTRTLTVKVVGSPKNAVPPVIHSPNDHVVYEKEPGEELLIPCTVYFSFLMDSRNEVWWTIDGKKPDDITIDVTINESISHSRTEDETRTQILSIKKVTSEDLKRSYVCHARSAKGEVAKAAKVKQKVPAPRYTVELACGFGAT
Experimental: (§3) Antibodies were diluted in kinetics buffer (0.1% BSA, 0.02% Tween-20 and 0.05% NaN3 in PBS) and loaded onto 16 channel anti-mouse IgG Fc capture sensors (AMC, Cat #2001073; Sartorius, Göttingen, Germany). Human, huIL1RAP-His (Sino Biological, lot: MB08MA1301), and monkey, cyIL1RAP-His (Lake Pharma, NY, USA; lot:16205819371) proteins were titrated starting from the highest concentration of 100 nM and followed by 50 nM and 25 nM. Purified antibodies were loaded at 5 μg/ml in kinetics buffer. The experimental parameters selected to determine the kinetic constants were Baseline for 60 s, Loading of antibody to sensor for 180 s, Association of analyte to antibody for 120 s, Dissociation for 1200 s and Regeneration in 10 mM Glycine pH 1.7 for 4×30 s.
(§4) Regeneration cycle tracking was selected for 12 cycles. Binding to human and cynomolgus IL1RAP was measured and KD (M) kinetics were calculated. Also, the disassociation rate (Kdis) (1/s) and association rate (Kon) (1/Ms) kinetics were calculated (data not shown).

[4] = tested on: IL1-induced downstream signaling (phospho-ERK, AKT, p38, NFκB) in A6L, CAL33, 5637, A549, Colo205, HCC70 cells; assay: IL1 signaling in solid tumor cancer cells, Western blot; type: cell-based; details: antibody 20 μg/ml
Experimental: as §1

[5] = tested on: IL1-induced NFκB activity; assay: HEK-BlueIL1β NFκB Reporter Assay; type: cell-based; details: nM range, read-out: IC50, inhibition of IL1-induced NFκB activity
Experimental: The HEK-Blue IL1β (Invivogen, Cat #hkb-il1b) cell line was used to monitor NFκB activity upon stimulation with IL1β cytokine. In this cell line the secreted embryonic alkaline phosphatase reporter gene (SEAP) is inducibly expressed under the control of IFN-β minimal promoter fused to NFκB/AP-1. Specificity to IL1β cytokine was achieved by blockage of TNF-α response. The cells were maintained in the presence of hygromycin (200 μg/ml) and zeocin (100 μg/ml).
as §2, with “CO2” for “CO^2”, “IL1β” for “IL33”, “(Invivogen, CA USA;” for “(Invivogen,”

[6] = tested on: cyIL1RAP; assay: Kinetics of IL1RAP mAbs by Octet, cynomolgus IL1RAP; type: binding
Experimental: as §3, §4

B1: 74804_45C18A: anti-IL1RAP mAb; VH SEQ ID NO:11, VL SEQ ID NO:27, κ light chain (antibody, V domains shown)
VH: EVQLVESGGGLVKPGGSLRLACAATGFTFSNVWMSWVRQGSGKGLEWVGRIKSKADGGTIDYAAPVKGRFTISRDDSKNTLYLQMNSLKTEDTAMYYCTTGELLGFDYWGQGTLVTVSS
VL: DIVMTQSPLSLPVTPGEPASISCRSGQSLLHSNGFNCLAWYLQKPGQSPQLLIYLGSNRASGVPDRFSGSGSGTDFTLKISRVEAEDVGVYYCMQTLQTPITFGQGTRLEIK
modifications: 74804_45C18A VH; 74804_45C18A VL
With B1 the “Inhibition of IL36 signaling (phosphorylation of ERK, AKT, p38 and NFκB)” value [1] was “Inhibition of IL36 signaling in solid tumor cancer cells”, the IC50 [2] was 1.37 nM and the “hIL1RAP kdis(1/s)” value [3] was 0.000273 s⁻¹. For the same molecule, the “hIL1RAP kon(1/Ms)” value [3] was 421500 M⁻¹ s⁻¹, the “Inhibition of IL1 signaling (phosphorylation of ERK, AKT, p38 and NFκB)” value [4] was “inhibited IL1 signaling in solid tumor cancer cells” and the IC50 [5] was 0.193 nM. For the same molecule, the “cyIL1RAP kdis(1/s)” value [6] was 0.000291 s⁻¹ and the “cyIL1RAP kon(1/Ms)” value [6] was 337500 M⁻¹ s⁻¹.
